This note sets out measurements from patent US20230234987A1.

In assay [1] the target is His-tagged PP1 (protein phosphatase 1, catalytic subunit). Put plainly: plate binding curve: biotinylated peptide on His-PP1 on nickel wells, streptavidin-Alexa Fluor 488.
Assay [2] has the same target. Put plainly: competition plate assay: MYPT1 1-299 binding to His-PP1 with increasing PIP250; competitor MYPT1 1-299.
The target is the same in assay [3]. Put plainly: plate binding curve: MYPT1 1-299 on His-PP1 on nickel wells, streptavidin-Alexa Fluor 488.
For assay [4] the target is unchanged. The description is as above. The source holds these as a separate data set.

Take PIP252 (H-rrfkaktkkrk-NH2) (peptide): the Kd (as a rule, the equilibrium constant for the complex coming apart) in assay [1] is 724 µM. In assay [1], PIP250 (H-rrfkvktkkrk-NH2) (peptide) returned a Kd of 610 µM. In assay [2], the Ki (commonly the dissociation constant of the complex between target and ligand, obtained from inhibition or displacement) worked out at 155 µM.

On to amino acids 1-299 of MYPT1, for which the values for the Kd in assay [3] and in assay [4] were 50 nM and 49 nM, respectively. PIP251 (H-rrakvktkkrk-NH2) (peptide): in assay [1], the Kd turned out to be 1280 µM.
